Experimental data published in patent US20070243569.

What was measured:
[1] = system: T1, non-phosphorylated pKID-PKA
T1 sequence: DKNADGWIDRASLA

[2] = system: T2, non-phosphorylated pKID-Erk
T2 sequence: DKNADGWIDAASPA

[3] = system: T3, non-phosphorylated pKID-PKC
T3 sequence: DKNADGWIDAASLK

Protein Kinase A (PKA)
extent of peptide phosphorylation by HPLC (conversion to phosphorylated peptide) [1]: pKID-PKA was enzymatically phosphorylated to >95% conversion in 12 hrs by PKA | phosphorylation in HeLa nuclear extract with added PKA after 3 h, conversion by HPLC [1]: Phosphorylation proceeded at 75% conversion as measured by HPLC | extent of peptide phosphorylation by HPLC [2]: under identical conditions pKID-Erk (FIG. 9) and pKID-PKC (FIG. 10) showed no evidence of phosphorylation | extent of peptide phosphorylation by HPLC [3]: under identical conditions pKID-Erk (FIG. 9) and pKID-PKC (FIG. 10) showed no evidence of phosphorylation
